From US20200016206A1

Target: IL-2Rαβ (UniProt P01589)
Test: in vitro binding affinity against IL-2 as standard; method presumably the SPR of Example 2 (Biacore T-100, receptor-Fc captured, EC50 from RU against concentration)

Chain of UniProt P01589 (P01589 22-213 limits assumed): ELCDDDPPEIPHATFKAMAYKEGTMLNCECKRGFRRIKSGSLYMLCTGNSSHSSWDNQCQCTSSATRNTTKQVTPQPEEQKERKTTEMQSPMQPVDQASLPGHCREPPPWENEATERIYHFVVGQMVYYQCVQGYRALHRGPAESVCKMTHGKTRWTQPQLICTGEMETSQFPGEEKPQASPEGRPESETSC

- fold decrease in affinity relative to IL-2: 60 fold
Substance: RSLAIL-2 (rIL-2 with the aldesleukin sequence, releasably PEGylated with mPEG2-C2-Fmoc-20kD-NHS) (from UniProt P60568 22-153) (ligand)
